In assay [1] the test system is U-87MG, human glioblastoma cells. In words: U87-MG spheroid growth. The assay is classed as cell-based. Particulars: antibody 10 μg/ml. The procedure: To evaluate the ability of anti-c-Met antibodies to inhibit in vitro tumor growth, in a model closer to an in vivo situation, U-87MG, human glioblastoma cells (ATCC #HTB-14) spheroids were generated. Cells grown as a monolayer were detached with trypsine-EDTA and resuspended into complete cell culture media (DMEM) supplemented with 10% FBS. Spheroids were initiated by inoculating 625 cells into single wells of round bottom, 96 plates in DMEM-10% FCS. To prohibit cell adhesion to a substratum, the plates were pre-coated with polyHEMA in 95% ethanol and air dried at room temperature. The plates were incubated under standard cell culture conditions at 37° C., 5% CO2 in humidified incubators. Purified monoclonal antibodies (10 μg/ml) were added after 3 and 7 days of spheroid culture. HGF (400 ng/ml) was added once after 4 days of culture. Spheroids were kept in culture for at least 10 days. Then, spheroid growth was monitored by measuring the area of spheroids using automeasure module of axiovision software. Area was expressed in μm^2. 8-16 spheroids were evaluated for each condition.
As already described in Example 9 for other Mabs, we evaluate the ability of 224G11 Mab to inhibit in vitro tumor growth in the U87-MG spheroid model. For that purpose, U87-MG cells grown as a monolayer were detached with trypsine-EDTA and resuspended into complete cell culture media. Spheroids were initiated by inoculating 625 cells into single wells of round bottom, 96 plates in DMEM-2.5% FCS. To prohibit cell adhesion to a substratum, the plates were pre-coated with polyHEMA in 95% ethanol and air dried at room temperature. The plates were incubated under standard cell culture conditions at 37° C., 5% CO2 in humidified incubators. Purified monoclonal antibodies (10 μg/ml) were added after 4 and 10 days of spheroid culture. Spheroids were kept in culture for 17 days. Then, spheroid growth was monitored by measuring the area of spheroids using automeasure module of axiovision software. Area was expressed in μm^2. 8-16 spheroids were evaluated for each condition. Spheroid size was measured before addition of antibodies, after 10 days of culture and after 17 days of culture.

The subject of assay [2] is SK-HEP-1 cells. Description: Three-dimensional tubulogenesis assay. As to conditions: SK-HEP-1, antibody 10 μg/ml; for inhibitory effect on tube formation in presence of HGF: HGF 100 ng/ml; for agonist effect on tube formation, alone: no HGF. It is filed as cell-based. The procedure:
SK-HEP-1 cells were seeded at 1·10^4 cells/well in a 24-well plate in DMEM with 10% FCS/Matrigel (50/50) and incubated for 30 min before addition, at the same time, of HGF (100 ng/ml) and antibodies to be tested (10 μg/ml). After 7 days incubation, cells were assessed for tube formation visually. Each tested condition was tested as a triplicate and 3 independent experiments were performed.

For assay [3], the target named is T1, SEMA domain (Homo sapiens, UniProt P08581).
T1 construct: the recombinant c-Met-Fc protein and the recombinant SEMA domain
T1 sequence (P08581 27-515 limits assumed): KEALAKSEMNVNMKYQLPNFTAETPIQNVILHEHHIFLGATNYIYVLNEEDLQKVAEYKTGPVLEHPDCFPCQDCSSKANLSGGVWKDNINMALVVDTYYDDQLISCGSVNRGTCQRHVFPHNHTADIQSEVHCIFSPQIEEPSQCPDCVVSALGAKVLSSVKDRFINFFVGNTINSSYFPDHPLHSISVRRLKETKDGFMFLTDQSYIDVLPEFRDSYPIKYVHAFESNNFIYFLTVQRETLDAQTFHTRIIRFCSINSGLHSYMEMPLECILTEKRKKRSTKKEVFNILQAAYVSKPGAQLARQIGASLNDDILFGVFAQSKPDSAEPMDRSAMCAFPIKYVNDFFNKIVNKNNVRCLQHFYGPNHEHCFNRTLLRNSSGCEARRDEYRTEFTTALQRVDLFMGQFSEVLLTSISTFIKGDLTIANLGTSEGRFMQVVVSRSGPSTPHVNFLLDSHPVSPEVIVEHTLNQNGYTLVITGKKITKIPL
In words: ELISA recognition of recombinant SEMA domain. The assay is classed as binding. The procedure:
To characterize the pattern of recognition of the 3 selected antibodies, 3 ELISA have been set up with the recombinant c-Met protein, its monomeric fragment (obtained by cleavage of the recombinant c-Met-Fc protein and the recombinant SEMA domain.
To perform these ELISA the human dimeric c-Met protein (R&D sytems, cat#358MT) is coated at the concentration of 0.7 μg/ml in PBS overnight at 4° C. After saturation of the plates (Costar #3690) with a 0.5% gelatin solution 2 hours at 37° C., hybridoma supernatants are incubated 1 hour at 37° C. Once rinsed with PBS, the anti-mouse HRP-antibody (Jackson ImmunoResearch, catalog #115-035-164) is added to each well at a 1/5000 dilution in ELISA buffer (0.1% gelatin/0.05% Tween 20 in PBS) and the plates incubated for 1 hour at 37° C. […] The reaction is left to occur for 5 min at room temperature. The reaction is stopped by the addition of 50 μl/well of a 1 M H2SO4 solution and read on a plate reader at 450 nm. The same kind of protocol was performed on monomeric c-Met and SEMA domain but in that cases proteins were coated at 5 and 3 μg/ml respectively.

Assay [4] has as its system BxPC3 cells. Description: In vitro inhibition of BxPC3 proliferation ([3H]thymidine incorporation). It is filed as cell-based. Particulars: BxPC3, in absence of ligand, antibody alone. The procedure: For that purpose 50 000 BxPC3 cells were plated in 96 well plates in RPMI medium, 2 mM L. Glutamine, without SVF. […] After 3 days, cells were pulsed with 0.5 μCi of [^3H]thymidine for 16 hours. The magnitude of [^3H]thymidine incorporated into trichloroacetic acid-insoluble DNA was quantified by liquid scintillation counting. Results were expressed as raw data to really evaluate the intrinsic agonistic effect of each Mab (FIGS. 2A and 2B).

Setting [5] is: Example 23: DMEM-2.5% FCS, 10 or 17 days of culture.
Where [6] appears, read: Example 9: DMEM-10% FCS, in presence and in absence of HGF 400 ng/ml.

B1: 224G11: murine anti-c-Met monoclonal antibody, IgG1 kappa; heavy chain SEQ ID No. 18, light chain SEQ ID No. 21 (antibody, V domains shown)
VH: EVQLQQSGPELVKPGASVKISCKTSGYIFTAYTMHWVRQSLGESLDWIGGIKPNNGLANYNQKFKGKATLTVDKSSSTAYMDLRSLTSEDSAVYYCARSEITTEFDYWGQGTALTVSS
VL: DIVLTQSPASLAVSLGQRATISCRASESVDSYANSFMHWYQQKPGQPPKLLIYRASNLESGIPARFSGSGSRTDFTLTINPVEADDVATYYCQQSKEDPLTFGSGTKLEMK
modifications: mus musculus
As for B1, in assay [1] (setting [5]), the “effect on spheroid growth” value is “markedly inhibited”. For the same molecule, in assay [2], the “inhibitory effect on tube formation in presence of HGF” value (“inhibitory effect on tube formation” below) is on record as “partial but significant inhibition” and the “agonist effect on tube formation, alone” value is recorded as “No agonistic effect”. Besides, the “binding to SEMA domain” value in assay [3] is reported as “did not bind”. Besides, the “agonist activity on cell proliferation” value in assay [4] is on record as “without any agonist activity”.

B2: 11E1: murine anti-c-Met monoclonal antibody, IgG1 kappa; heavy chain SEQ ID No. 62, light chain SEQ ID No. 63 (antibody, V domains shown)
VH: QVQLQQSGAELAKPGASVKMSCKASGYTFTSYWMNWVKQRPGQGLEWIGYINPTTGSTDYNQKLKDKATLTADKSSNTAYMQLSSLTSEDSAVYYCAIGGYGSWFAYWGQGTLVTVSA
VL: QIVLTQSPAIMSASPGEKVTLTCSASSSVSSTYLYWYQQKPGSSPKLWIYTTSILASGVPARFSGSGSGTSYSLTISSMETEDAASYFCHQWSSYPFTFGSGTKLDIK
modifications: mus musculus
Consider B2, for which the “effect on spheroid growth” value in assay [1] (setting [6]) is reported as “reduced significantly”. The “effect on spheroid growth” value in assay [1] (setting [5]) was “markedly inhibited”. For the same molecule, in assay [2], the “inhibitory effect on tube formation” value is on record as “full inhibitory effect” and the “agonist effect on tube formation, alone” value is listed as “No agonistic effect”. Also, the “binding to SEMA domain” value in assay [3] is on record as “able to bind”. Also, the “agonist activity on cell proliferation” value in assay [4] is “without any agonist activity”.

B3: 223C4: murine anti-c-Met monoclonal antibody, IgG1 kappa; heavy chain SEQ ID No. 20, light chain SEQ ID No. 23 (antibody, V domains shown)
VH: EVLLQQSGPELVKPGASVKIPCKASGYTFTDYNMDWVKQSHGMSLEWIGDINPNNGGTIFNQKFKGKATLTVDKSSSTAYMELRSLTSEDTAVYYCARGRYVGYYYAMDYWGQGTSVTVSS
VL: DIQMTQSPASLSVSVGETVTITCRASENIYSNLAWYQQKQGKSPQLLVYAATNLVDGVPSRFSGSGSGTQYSLKINSLQSEDFGSYYCQHFWGPPYTFGGGTKLEIK
modifications: mus musculus
For the molecule B3, in assay [1] (setting [6]), the “effect on spheroid growth” value was “reduced significantly”. In addition, in assay [2], the “inhibitory effect on tube formation” value is “full inhibitory effect” and the “agonist effect on tube formation, alone” value was “No agonistic effect”. For the same molecule, the “binding to SEMA domain” value in assay [3] is recorded as “did not bind”. For the same molecule, the “agonist activity on cell proliferation” value in assay [4] is “without any agonist activity”.

Source of the values: patent publication US8871909B2, “Antibodies inhibiting c-Met dimerization and uses thereof” (Pierre Fabre Medicament, priority 2007, dated 2014).
